Source: US20260070975A1 (SANTA ANA BIO, published 2026)
Numbering of substitutions follows the chain as printed.

B1: hSR1-1 (antibody, human IgG1, kappa, V domains shown)
VH: QVQLVQSGAEVKKPGASVKVSCKASGYTFTSYNMHWVRQAPGQGLEWMGVIYSGNGDTSYAQKFQGRVTMTADTSTSTAYMELSSLRSEDTAVYYCARERDTRFGNWGQGTLVTVSS
VL: DIQLTQSPSSLSASVGDRATITCRASESVDIYGNSFMHWYQQKPGKAPKLLIYLASNLESGVPSRFSGSGSGTDFTLTISSVQPEDFATYYCQQNNEDPYTFGQGTKLEIKR
notes: Humanized anti-c-Kit antibody; also called humanized SR1-1; hSR1-H2 / hSR1-L2
B2: hSR1-2 (antibody, human IgG1, kappa, V domains shown)
VH: B1 VH with V20M, M48I, V68A, M70L
VL: B1 VL
notes: also called humanized SR1-2; hSR1-H3 / hSR1-L2
B3: hSR1-4 (antibody, human IgG1, kappa, V domains shown)
VH: B1 VH with V20M, M48I, V68A, M70L, T74K
VL: B1 VL
notes: also called humanized SR1-4; hSR1-H3b / hSR1-L2
B4: hSR1-5 (antibody, human IgG1, kappa, V domains shown)
VH: B1 VH
VL: B1 VL with G72R
notes: also called humanized SR1-5; hSR1-H2 / hSR1-L2r
B5: hSR1-3 (antibody, human IgG1, kappa, V domains shown)
VH: B1 VH with T74K
VL: B1 VL
notes: also called humanized SR1-3; hSR1-H2b / hSR1-L2
B6: hSR1-6 (antibody, human IgG1, kappa, V domains shown)
VH: B1 VH with V20M, M48I, V68A, M70L
VL: B1 VL with G72R
notes: also called humanized SR1-6; hSR1-H3 / hSR1-L2r
B7: anti-siglec/anti-c-Kit bispecific JML-1/hSR1-1 (bispecific antibody, V domains shown)
VH 1: KVQLLESGGGLVQPGRSLRLSCAASGFTFDDYGMHWVRQAPGKGLEWVSGISWNSGSIGYADSVKGRFTISRDNSKNTLYLQMNSLRAEDTAVYYCARGGQTIDIWGQGTMVTVSS
VL 1: not shown
VH 2: B1 VH
VL 2: DIQLTQSPSSLSASVGDRATITCRASESVDIYGNSFMHWYQQKPGKAPKLLIYLASNLESGVPSRFSGSGSGTDFTLTISSVQPEDFATYYCQQNNEDPYTFGQGTKLEIK
B8: anti-siglec/anti-c-Kit bispecific hRND-3/hSR1-1 (bispecific antibody, V domains shown)
VH 1: QVQLVQSGAEVKKPGASVKLSCKASGYAFTSYWMHWVRQAPGQRLEWIGEIYPTNGGTTYAQKFQGRATLTVDKSTSTAYMELSRLRSDDTAVYYCTIEDFYAMDYWGQGTTVTVSS
VL 1: DIVMTQTPLSLSVTPGQPASISCKSSQSLLDSDGKTSLNWLLQKPGQSPQRLIYLVSKLDSGVPDRFSGSGSGTDFTLKISRVEAEDVGVYYCWQGTHFPYTFGQGTKLEIK
VH 2: B1 VH
VL 2: B7 VL 2
B9: Murine anti-siglec-6 RND (mRND) (antibody, mouse IgG2a, kappa, V domains shown)
VH: QVQLQQPGAELVKPGASVKLSCKASGYAFTSYWMHWVKLRPGQGFEWIGEIYPTNGGTTYNEKFKRKATLTVDKSSSTAYMQLSSLTSEDSAVYYCTIEDFYAMDYWGQGTSVTVSS
VL: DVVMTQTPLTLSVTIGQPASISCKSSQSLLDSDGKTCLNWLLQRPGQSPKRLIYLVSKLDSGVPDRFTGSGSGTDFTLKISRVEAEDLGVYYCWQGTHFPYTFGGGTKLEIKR
notes: also called murine RND; copies: 2 + 2
B10: Murine anti-c-Kit SR1 (mSR1) (antibody, mouse IgG2a, kappa)
heavy: QVQLQQPGAELVKPGASVKMSCKASGYTFTSYNMHWVKQTPGQGLEWIGVIYSGNGDTSYNQKFKGKATLTADKSSSTAYMQINSLTSEDSAVYYCARERDTRFGNWGQGTLVTVSAAKTTAPSVYPLAPVCGDTTGSSVTLGCLVKGYFPEPVTLTWNSGSLSSGVHTFPAVLQSDLYTLSSSVTVTSSTWPSQSITCNVAHPASSTKVDKKIEPRGPTIKPCPPCKCPAPNLLGGPSVFIFPPKIKDVLMISLSPIVTCVVVDVSEDDPDVQISWFVNNVEVHTAQTQTHREDYNSTLRVVSALPIQHQDWMSGKEFKCKVNNKDLPAPIERTISKPKGSVRAPQVYVLPPPEEEMTKKQVTLTCMVTDFMPEDIYVEWTNNGKTELNYKNTEPVLDSDGSYFMYSKLRVEKKNWVERNSYSCSVVHEGLHNHHTTKSFSRTPGK
light: NIVLTQSPASLAVSLGLRATISCRASESVDIYGNSFMHWYQQKPGQPPKLLIYLASNLESGVPARFSGSGSRTDFTLTIDPVEADDAATYYCQQNNEDPYTFGGGTKLEIKRADAAPTVSIFPPSSEQLTSGGASVVCFLNNFYPKDINVKWKIDGSERQNGVLNSWTDQDSKDSTYSMSSTLTLTKDEYERHNSYTCEATHKTSTSPIVKSFNRNEC

Each binder was assayed against T1, Cynomolgus c-Kit (BLI analyte) (cynomolgus) (assay: BLI (Octet), antibody on capture sensor).
T1 construct: also called Cynomoguls c-Kit
Procedure: (§1) Further, binding affinities of c-Kit antibodies to human c-Kit and cynomolgus c-Kit were measured by biolayer interferometry ([…]) using an Octect instrument. Briefly, capture sensors were loaded with test antibodies with 3-fold dilutions. The association and dissociation rates to were determined and used to calculate the equilibrium dissociation constant KD (Table 3).

Binder | Kd
B1 | 0.232 nM
B2 | 0.389 nM
B3 | 0.563 nM
B4 | 0.405 nM
B5 | 0.332 nM
B6 | 0.296 nM

These binders were tested against Human c-Kit (BLI analyte) (human, UniProt P10721 26-520, limits assumed) (assay: BLI (Octet), antibody on capture sensor).
Chain of Human c-Kit (BLI analyte) (P10721 26-520 limits assumed): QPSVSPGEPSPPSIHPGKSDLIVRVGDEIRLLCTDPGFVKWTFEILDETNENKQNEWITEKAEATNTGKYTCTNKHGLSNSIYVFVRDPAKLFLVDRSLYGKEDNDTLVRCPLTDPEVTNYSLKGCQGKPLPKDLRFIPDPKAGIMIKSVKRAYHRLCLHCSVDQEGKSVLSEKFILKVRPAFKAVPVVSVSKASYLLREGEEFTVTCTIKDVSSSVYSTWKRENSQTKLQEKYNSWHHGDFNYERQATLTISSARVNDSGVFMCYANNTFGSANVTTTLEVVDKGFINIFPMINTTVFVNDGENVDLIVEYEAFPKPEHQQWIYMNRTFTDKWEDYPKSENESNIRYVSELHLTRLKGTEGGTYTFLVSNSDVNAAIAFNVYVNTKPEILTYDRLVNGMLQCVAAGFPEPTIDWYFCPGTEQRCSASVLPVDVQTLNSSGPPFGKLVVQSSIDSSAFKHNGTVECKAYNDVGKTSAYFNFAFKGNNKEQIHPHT
Procedure: as §1

Binder | Kd
B1 | 0.199 nM
B2 | 0.245 nM
B3 | 0.386 nM
B4 | 0.256 nM
B5 | 0.256 nM
B6 | 0.247 nM

Each binder was assayed against T2, c-Kit expressed on the cell surface of M-07e cells (human, UniProt P10721 26-976) (assay: flow cytometry on M-07e cells).
T2 construct: whole, on cells; also called cell surface expressed c-Kit; CD117
T2 sequence (P10721 26-976): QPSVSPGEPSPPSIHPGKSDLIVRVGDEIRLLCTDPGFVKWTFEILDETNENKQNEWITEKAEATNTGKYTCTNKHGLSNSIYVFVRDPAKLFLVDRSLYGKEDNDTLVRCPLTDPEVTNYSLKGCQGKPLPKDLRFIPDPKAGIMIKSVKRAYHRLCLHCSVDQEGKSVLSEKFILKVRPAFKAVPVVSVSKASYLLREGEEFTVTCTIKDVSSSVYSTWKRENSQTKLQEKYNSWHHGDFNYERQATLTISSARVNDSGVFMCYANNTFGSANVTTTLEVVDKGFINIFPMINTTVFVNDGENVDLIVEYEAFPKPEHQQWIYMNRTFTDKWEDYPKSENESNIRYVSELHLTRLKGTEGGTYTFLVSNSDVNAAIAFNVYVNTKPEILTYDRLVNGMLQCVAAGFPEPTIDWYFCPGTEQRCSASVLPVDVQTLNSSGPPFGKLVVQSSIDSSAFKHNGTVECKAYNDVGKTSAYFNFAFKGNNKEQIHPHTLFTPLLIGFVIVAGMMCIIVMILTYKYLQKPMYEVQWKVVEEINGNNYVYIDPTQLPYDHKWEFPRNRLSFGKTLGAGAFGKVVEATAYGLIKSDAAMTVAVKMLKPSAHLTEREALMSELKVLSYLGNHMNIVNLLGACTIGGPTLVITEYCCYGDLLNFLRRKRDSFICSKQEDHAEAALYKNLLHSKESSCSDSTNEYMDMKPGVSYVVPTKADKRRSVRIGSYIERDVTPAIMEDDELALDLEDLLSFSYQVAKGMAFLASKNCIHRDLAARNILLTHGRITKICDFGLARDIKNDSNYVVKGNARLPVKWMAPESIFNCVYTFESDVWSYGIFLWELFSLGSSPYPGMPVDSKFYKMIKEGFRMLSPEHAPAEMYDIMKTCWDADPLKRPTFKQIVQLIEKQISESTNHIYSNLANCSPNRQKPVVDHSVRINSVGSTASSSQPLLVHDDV
Procedure: (§2) Target binding of c-Kit antibodies to c-Kit-expressing cells was assessed by flow cytometry. Cultured M-07e cells were resuspended in FACS Blocking Buffer (PBS+10% normal human serum) for 30 minutes. Following washing, cells were incubated with c-Kit antibodies in FACS Buffer (PBS+0.5% bovine serum albumin+0.09% sodium azide) and incubated at 4° C. for 30 minutes, washed and incubated with PE-labeled anti-human secondary antibody. Cells were incubated at 4° C. for 30 minutes in the dark. Following washing, cytofluorimetric analysis was conducted using a BD FACS Symphony A3 (BD Biosciences). Cells were sorted by scatter properties and separated for single cell analysis using side scatter width vs side scatter area. Antibody binding to cells was quantitated by measuring fluorescent emissions of excitation wavelength of 561 nm using a 586/15 nm filter. All tested c-Kit antibodies were capable of binding to cells expressing c-Kit.

Binder | Measuring Fluorescent Intensity (MFI) | Percent Positive for c-Kit on M-07e cells
B1 | 5020 MFI | 99.5%
B2 | 5200 MFI | 99.7%
B3 | 4960 MFI | 99.8%
B4 | 4030 MFI | 99.5%
B5 | 5190 MFI | 99.8%
B6 | 3590 MFI | 99.4%

The binders below were run against T2, c-Kit expressed on the cell surface of … (assay: cell-based or functional assay).

Binder | IC50 (read off the curve)
B7 | ~0.3 nM
B8 | ~0.2 nM

What follows are binders tested against T3, Human siglec-6 expressed on the cell surface (HMC1.2 cells; HEK293 cells expressing human siglec-6) (human, UniProt O43699 27-453) (assay: flow cytometry on HMC1.2 cells).
T3 construct: whole, on cells; also called cell surface expressed siglec-6; CD327
T3 sequence (O43699 27-453): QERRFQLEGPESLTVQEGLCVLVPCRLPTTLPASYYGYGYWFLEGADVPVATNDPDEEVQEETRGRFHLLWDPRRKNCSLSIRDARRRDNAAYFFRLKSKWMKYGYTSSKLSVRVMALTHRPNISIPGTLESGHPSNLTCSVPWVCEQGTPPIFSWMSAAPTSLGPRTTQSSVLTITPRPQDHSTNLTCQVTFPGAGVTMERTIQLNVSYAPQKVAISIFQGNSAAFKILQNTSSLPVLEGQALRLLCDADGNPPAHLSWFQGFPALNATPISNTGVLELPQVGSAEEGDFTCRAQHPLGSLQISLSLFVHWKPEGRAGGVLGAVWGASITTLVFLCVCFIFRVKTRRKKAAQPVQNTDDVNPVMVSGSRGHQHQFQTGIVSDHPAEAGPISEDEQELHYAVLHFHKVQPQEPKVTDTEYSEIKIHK
Procedure: as §2, with “siglec-6” for “c-Kit”, “siglec-6-expressing” for “c-Kit-expressing”, “HMC1.2” for “M-07e”, “anti-human or anti-mouse” for “anti-human”, “antibodies.” for “antibody.”, “siglec-6.” for “c-Kit.”

Binder | MFI | Percent Positive for Siglec-6 on HMC1.2 cells
B9 | 1970 MFI | 99.9%

Molecular target: T2, c-Kit expressed on the cell surface of …
Experiment: cell-based or functional assay
Remark: another data set of the same source

Binder | IC50, inhibition of SCF-dependent proliferation of M-07e cells
B10 | 0.283 nM
B1 | 0.141 nM
B2 | 0.142 nM
B3 | 0.139 nM
B4 | 0.141 nM
B5 | 0.113 nM
B6 | 0.152 nM

Each binder was assayed against T4, His-tagged PDGFRa extracellular domain (UniProt P16234 24-528, limits assumed) (assay: ELISA, His-tagged extracellular domain coated).
T4 construct: extracellular domain; also called c-Kit family member; not shown: His tag
T4 sequence (P16234 24-528 limits assumed): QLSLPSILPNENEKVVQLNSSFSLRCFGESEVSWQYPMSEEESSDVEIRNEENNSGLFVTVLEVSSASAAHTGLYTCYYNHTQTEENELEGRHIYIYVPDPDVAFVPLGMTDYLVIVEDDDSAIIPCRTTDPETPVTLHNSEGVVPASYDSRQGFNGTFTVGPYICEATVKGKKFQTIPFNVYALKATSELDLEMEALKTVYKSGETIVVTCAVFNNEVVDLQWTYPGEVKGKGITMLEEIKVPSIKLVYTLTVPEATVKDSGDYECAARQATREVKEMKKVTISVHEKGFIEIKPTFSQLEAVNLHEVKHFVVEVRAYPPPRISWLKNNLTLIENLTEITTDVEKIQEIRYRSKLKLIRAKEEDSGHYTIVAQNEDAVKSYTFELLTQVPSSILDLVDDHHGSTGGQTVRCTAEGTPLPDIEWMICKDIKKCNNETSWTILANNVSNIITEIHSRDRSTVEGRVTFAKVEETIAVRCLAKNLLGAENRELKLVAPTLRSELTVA
Procedure: (§3) His-tagged human c-Kit, His-tagged cynomolgus c-Kit, and His-tagged PDGFRa, PDGFRb, CSF1R, and FLT3 extracellular domains were immobilized on 96 well ELISA plates. Plates were washed with PBST (Phosphate buffered saline+0.05% Tween 20) and blocked for 1 hour with 1% BSA in PBS. Following washing with PBST, mAbs were added to the coated plate and incubated for 2 hours at room temperature. Plates were washed and incubated with HRP-conjugated goat anti-human IgG secondary antibody for 1 hour at room temperature. Following washing, antibody binding was detected colorimetrically by adding 3,3′,5,5′-tetramethylbenzidine (TMB) and incubated at room temperature for 10-20 minutes before adding 2.5N sulfuric acid stopping solution. Absorbance at 450 nm was measured on a plate reader (PerkinElmer). Data was analyzed using GraphPad Prism.

Binder | binding result
B1 | no binding
B2 | no binding
B3 | no binding
B4 | no binding
B5 | no binding
B6 | no binding

These binders were tested against T5, His-tagged PDGFRb extracellular domain (UniProt P09619 33-532, limits assumed) (assay: ELISA, His-tagged extracellular domain coated).
T5 construct: extracellular domain; also called c-Kit family member; not shown: His tag
T5 sequence (P09619 33-532 limits assumed): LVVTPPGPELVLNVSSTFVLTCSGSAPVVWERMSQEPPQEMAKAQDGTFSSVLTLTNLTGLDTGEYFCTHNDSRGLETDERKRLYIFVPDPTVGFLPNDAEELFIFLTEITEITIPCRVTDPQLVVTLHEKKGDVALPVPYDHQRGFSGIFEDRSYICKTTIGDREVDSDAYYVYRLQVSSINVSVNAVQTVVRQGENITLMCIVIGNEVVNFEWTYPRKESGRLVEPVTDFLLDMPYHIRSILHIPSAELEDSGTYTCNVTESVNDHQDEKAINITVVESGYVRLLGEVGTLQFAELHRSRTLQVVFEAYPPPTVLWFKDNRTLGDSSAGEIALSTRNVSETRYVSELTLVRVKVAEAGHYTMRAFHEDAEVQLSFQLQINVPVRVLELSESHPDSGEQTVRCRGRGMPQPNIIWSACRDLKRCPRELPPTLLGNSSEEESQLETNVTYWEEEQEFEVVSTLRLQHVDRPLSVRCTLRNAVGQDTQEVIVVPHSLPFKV
Procedure: as §3

Binder | binding result
B1 | no binding
B2 | no binding
B3 | no binding
B4 | no binding
B5 | no binding
B6 | no binding

Each binder was assayed against T6, His-tagged CSF1R extracellular domain (UniProt P07333 20-517, limits assumed) (assay: ELISA, His-tagged extracellular domain coated).
T6 construct: extracellular domain; also called c-Kit family member; not shown: His tag
T6 sequence (P07333 20-517 limits assumed): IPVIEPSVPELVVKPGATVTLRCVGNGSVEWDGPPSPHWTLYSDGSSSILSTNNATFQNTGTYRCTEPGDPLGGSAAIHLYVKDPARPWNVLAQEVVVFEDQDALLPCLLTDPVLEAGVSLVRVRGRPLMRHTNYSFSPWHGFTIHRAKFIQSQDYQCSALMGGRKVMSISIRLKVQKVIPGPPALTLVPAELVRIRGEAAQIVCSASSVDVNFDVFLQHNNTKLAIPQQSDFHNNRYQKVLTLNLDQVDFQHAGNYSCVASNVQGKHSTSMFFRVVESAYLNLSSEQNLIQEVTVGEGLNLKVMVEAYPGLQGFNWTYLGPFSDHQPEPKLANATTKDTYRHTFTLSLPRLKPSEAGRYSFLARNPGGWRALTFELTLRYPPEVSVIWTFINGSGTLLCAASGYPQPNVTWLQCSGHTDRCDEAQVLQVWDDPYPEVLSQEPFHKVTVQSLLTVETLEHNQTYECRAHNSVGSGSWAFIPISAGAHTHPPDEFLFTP
Procedure: as §3

Binder | binding result
B1 | no binding
B2 | no binding
B3 | no binding
B4 | no binding
B5 | no binding
B6 | no binding

Each binder was assayed against T7, His-tagged FLT3 extracellular domain (UniProt P36888 27-543, limits assumed) (assay: ELISA, His-tagged extracellular domain coated).
T7 construct: extracellular domain; also called c-Kit family member; not shown: His tag
T7 sequence (looked up): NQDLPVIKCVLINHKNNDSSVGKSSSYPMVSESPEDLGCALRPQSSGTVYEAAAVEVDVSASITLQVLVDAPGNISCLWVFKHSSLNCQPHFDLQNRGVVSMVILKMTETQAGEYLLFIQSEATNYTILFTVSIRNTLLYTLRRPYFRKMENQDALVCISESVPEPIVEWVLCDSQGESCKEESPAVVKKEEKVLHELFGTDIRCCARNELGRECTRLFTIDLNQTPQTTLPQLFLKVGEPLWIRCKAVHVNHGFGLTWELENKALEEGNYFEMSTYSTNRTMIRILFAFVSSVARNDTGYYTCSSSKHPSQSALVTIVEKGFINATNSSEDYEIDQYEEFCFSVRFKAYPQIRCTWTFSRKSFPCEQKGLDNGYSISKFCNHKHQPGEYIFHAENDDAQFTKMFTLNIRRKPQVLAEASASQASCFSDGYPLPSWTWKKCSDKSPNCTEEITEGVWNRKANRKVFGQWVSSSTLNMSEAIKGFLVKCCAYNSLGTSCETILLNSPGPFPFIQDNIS
Procedure: as §3

Binder | binding result
B1 | no binding
B2 | no binding
B3 | no binding
B4 | no binding
B5 | no binding
B6 | no binding
